Data published in patent US20250215403A1, “Compositions and Methods for Cardiac Tissue Regeneration” (Temple University - Of The Commonwealth System Of Higher …, priority 2022, published 2025).

Columns and labels:
cardiomyocytes (CM) = test: Mouse MI model: immunostaining of heart sections for CM cell cycle markers (ki67, pH3, BrdU, Aurora B); format: in vivo; conditions: seven days post-MI
Procedure: All surgical and experimental procedures with mice were performed in accordance with protocols approved by Institutional Animal Care and Use Committees at Temple University Animal Care and Use Committee (IACUC). C57BL6 or CM-specific MADM mice (8-12-weeks-old) were anesthetized with isoflurane. MI was induced by permanent ligation of the LAD, as previously described (Garikipati, V. N. S., et al., 2019, Nature Communications, 10:4317). Briefly, the left thoracic region was shaved and sterilized. After intubation, the heart was exposed through a left thoracotomy. A suture was placed to ligate the LAD. The thoracotomy and skin were sutured closed in layers. Excess air was removed from the thoracic cavity, and the mouse was removed from ventilation when normal breathing was established. In order to determine the effect of modRNA on cardiovascular outcome after MI, modRNAs (100 μg/heart) were injected into the infarct zone immediately after LAD ligation (Magadum A., et al., Circulation. 2020, 141 (15): 1249-1265). For examination of heart histology, hearts were collected at the end of each study, quickly washed in PBS, weighed, and fixed in 4% PFA for cryo-sectioning and immunostainings. In all experiments, the surgeon was blinded to the treatment group. For assessment of heart histology, hearts were collected at the end of each study. The hearts were excised, briefly washed in PBS, perfused with perfusion buffer, weighed and fixed in 4% PFA at 4° C. overnight. The heart blocks were transverse sectioned at 6-8 μm using cryostat. The heart sections were further processed for histological evaluation using immunostaining (see below) or histological scar staining using Masson's trichrome staining kit (Sigma) according to standard procedures. Measuring the ratio of heart weight to body weight was done using a scale. This ratio was calculated as the heart tissue weight relative to the mouse total body weight in grams (g).
Mice were injected with AAV9-GFP or AAV9-YAP1-shRNA (GeneCopoeia) through retro-orbital injection 7 days before LAD. A total of 5×10^11 viral genomes (50 μl total volume delivered) was injected per mouse. The level of YAP1 inhibition was determined at the mRNA level by qPCR 14 days post injection.
Mice hearts were harvested, weighed, and fixed in 4% PFA/PBS overnight on shaker and then washed with PBS for 1 hour and incubated in 30% sucrose/PBS at 4° C. for 12-18 hours. Hearts were then fixed in OCT and frozen at −80° C. (Magadum A., et al., Circulation. 2020, 141 (15): 1249-1265). Transverse heart sections (6-8 μm) were made using a cryostat. Frozen sections were rehydrated in PBS for 5-10 min followed by permeabilization with PBS with 0.1% Triton™ X100 (PBST) for 7-8 min. Heart sections were then treated with 3% H2O2 for 5 min and washed (3×5 min) with PBST. The samples were then blocked with PBS+10% Donkey normal serum+0.1% Triton™ X100 (PBSST) for 1 hour at room temperature. Primary antibodies (see complete list of primary antibodies used for this Example in Table 2 below) diluted in PBST were added and incubated overnight at 4° C. Slides were washed with PBST (3×5 min) followed by incubation with a secondary antibody (Invitrogen, 1:200) diluted in PBST for 90-120 min at room temperature. The samples were further washed with PBST (3×5 min) and stained with DAPI or Hoechst 33342 (1 μg/ml) diluted in PBST for 7 min. After being washed with PBST (3×7 min) and tap water (1×5 min) slides were mounted with mounting medium (VECTASHIELD®) for imaging (Magadum A., et al., Circulation. 2020, 141 (15): 1249-1265). Stained slides were stored at 4° C. All staining was performed on 4-8 hearts/group, with 2-3 sections/heart. For immunostaining with wheat germ agglutinin (WGA) for CM size quantification, images were captured at 40× magnification, and ImageJ was used to determine the area of each cell. […]

cell cycle markers = test: qPCR of cell-cycle-promoting genes and cell-cycle inhibitors in heart post-MI; format: in vivo, mouse; conditions: 2 days post-MI; compared to Luc modRNA
Procedure: Total RNA was isolated using TRIzol™ RNA isolation and RNeasy® (Qiagen) then reverse transcribed with High-Capacity cDNA Reverse Transcription Kit (Applied Biosystems), according to the manufacturer's instructions. Real-time qPCR analyses were performed on a StepOnePlus™ Real-Time PCR System using SYBR™ Green (Applied Biosystems). The primer sequences were synthesized by IDT (see Table 4 below). Data were normalized to 18s expression, where appropriate (endogenous controls). Fold-changes in gene expression were determined by the […] method and were presented relative to an internal control.

[1] = system: serine synthesis pathway (SSP); test: 13C glucose isotopic tracer metabolic flux analysis in neonatal rat CMs; format: cell-based
Procedure: P3 neonatal rat CMs (2×10^6) were cultured in DMEM and transfected with Luc or PSAT1 modRNA. After 6 hours medium was changed with ^13C glucose-containing DMEM. Samples were collected at 10 min, 2 hours and 18 hours by flash freezing the cell culture plates using liquid nitrogen and stored at −80° C. Metabolites were extracted from cells using 80% methanol (Magadum A., et al., Circulation. 2020, 141 (15): 1249-1265). Targeted LC/MS analyses were performed on a Q Exactive Orbitrap mass spectrometer (Thermo Scientific) coupled to a Vanquish UPLC system (Thermo Scientific). The Q Exactive was operated in polarity-switching mode. A Sequant ZIC-HILIC column (2.1 mm i.d.×150 mm, Merck) was used for separation of metabolites with a flow rate was 150 μL/min. […] Relative metabolite quantitation was performed based on peak area for each metabolite. All data analyses were done using scripts written in house (Metabolomics Facility, Biotechnology Resource Center, Cornell University).

NRVM = test: TUNEL apoptosis of NRVMs under hypoxic conditions; format: cell-based, rat; conditions: hypoxic conditions for 24 hours; agent alone

B1: PSAT1 modRNA: modified mRNA with N1-methylpseudouridine, transcribed in vitro, encoding phosphoserine aminotransferase 1 (ORF SEQ ID NO: 1, RNA SEQ ID NO: 2) (nucleic acid)
chain: AUGGAAGCCACCAAGCAAGUGGUUAACUUUGGGCCCGGGCCUGCCAAGCUGCCACACUCGGUAUUGUUGGAGAUCCAGAAGCAGCUACUAGACUACAGAGGACUCGGCAUCAGUGUGCUCGAAAUGAGUCACAGGUCAUCAGAUUUUGCCAAGAUUAUUGGCAAUACAGAGAAUCUUGUGAGGGAAUUGCUAGCUGUUCCCAACAACUACAAGGUGAUCUUUGUACAAGGAGGUGGGUCUGGCCAGUUCAGUGCUGUCCCCUUAAAUCUGAUUGGCCUGAAAGCUGGAAGGAGUGCUGACUACGUGGUGACCGGAGCUUGGUCAGCUAAGGCUGCGGAAGAAGCCAAGAAGUUUGGAACGGUGAACAUUGUCCACCCUAAACUUGGAAGUUACACAAAAAUUCCAGACCCAAGCACCUGGAACCUCAACCCGGACGCCUCCUAUGUAUACUUCUGUGCAAACGAGACUGUGCACGGGGUGGAGUUUGACUUCGUACCUGACGUCAAGGGAGCGGUGCUGGUCUGUGACAUGUCCUCAAACUUCUUAUCCAGGCCGGUGGAUGUUUCCAAGUUUGGUGUGAUUUUCGCUGGUGCUCAGAAGAAUGUUGGCUCUGCCGGGGUGACGGUGGUGAUUGUCCGGGAUGACCUGCUGGGGUUCUCGCUCAGAGAGUGCCCAUCAGUCCUUGACUACAAAGUGCAGGCUGGGAACAACUCUUUGUAUAACACACCUCCGUGCUUCAGCAUCUACGUCAUGGGCAUGGUCCUGGAAUGGAUCAAGAACAACGGCGGGGCCGCAGCCAUGGAGAAGCUCAGCUCCAUCAAAUCCCAAAUGAUUUAUGAGAUCAUUGAUAAUUCUCAAGGAUUUUAUGUAUGCCCAGUGGAGCGCCAGAAUAGAAGCAGGAUGAACAUCCCAUUUCGCAUUGGCAACGCCAAAGGAGACGAAGCUUUGGAAAAGCGGUUUCUUGACAAGGCGGUAGAACUCAACAUGAUCUCCUUGAAGGGGCACAGGUCAGUGGGAGGCAUUCGUGCCUCUCUGUAUAACGCUGUCACAACCGAAGACGUUGAGAAGCUGGCGGCCUUCAUGAAGAAUUUCUUGGAGAUGCAUCAGCUGUGA
modifications: N1-methylpseudouridine
Cardiomyocytes (CM); PSAT1 modRNA plus AAV9-YAP1-shRNA, compared to controls, significantly lower rate than PSAT1 modRNA alone
  CM cell cycle inhibition under YAP1 inhibition: partially reversed
Cardiomyocytes (CM); compared to Luc modRNA
  CMs positive for Aurora B: significant increase
  CMs positive for BrdU (DNA synthesis): significant increase
  CMs positive for pH3: significant increase
Cell cycle markers
  expression of positive cell cycle markers: induced
  negative regulators of cell cycle markers: inhibiting
[1]; 13C glucose flux
  glutathione levels: Increased
  purines AMP and GMP levels: increased
[1]; 13C glucose, vs Luc modRNA
  TCA cycle intermediates: Increased levels
  metabolites involved in the serine synthesis pathway (SSP), including phosphoserine, serine, and glycine: significant elevation
NRVM
  NRVM / CM apoptosis (TUNEL+ CMs): significantly inhibited
